Source: US11311622B2, “Development of masked therapeutic antibodies to limit off-target effects” (CITY OF HOPE, priority 2010, dated 2022)

Target: T1, MMP-9 (Homo sapiens, UniProt P14780)
T1 construct: purchased Calbiochem
Experiment: MMP-9 digestion of masked and cross-masked scFvs (SDS-PAGE)
Type: biochemical
Details: into the mask and scFv proteins

T1 sequence (P14780 107-707 limits assumed, species assumed): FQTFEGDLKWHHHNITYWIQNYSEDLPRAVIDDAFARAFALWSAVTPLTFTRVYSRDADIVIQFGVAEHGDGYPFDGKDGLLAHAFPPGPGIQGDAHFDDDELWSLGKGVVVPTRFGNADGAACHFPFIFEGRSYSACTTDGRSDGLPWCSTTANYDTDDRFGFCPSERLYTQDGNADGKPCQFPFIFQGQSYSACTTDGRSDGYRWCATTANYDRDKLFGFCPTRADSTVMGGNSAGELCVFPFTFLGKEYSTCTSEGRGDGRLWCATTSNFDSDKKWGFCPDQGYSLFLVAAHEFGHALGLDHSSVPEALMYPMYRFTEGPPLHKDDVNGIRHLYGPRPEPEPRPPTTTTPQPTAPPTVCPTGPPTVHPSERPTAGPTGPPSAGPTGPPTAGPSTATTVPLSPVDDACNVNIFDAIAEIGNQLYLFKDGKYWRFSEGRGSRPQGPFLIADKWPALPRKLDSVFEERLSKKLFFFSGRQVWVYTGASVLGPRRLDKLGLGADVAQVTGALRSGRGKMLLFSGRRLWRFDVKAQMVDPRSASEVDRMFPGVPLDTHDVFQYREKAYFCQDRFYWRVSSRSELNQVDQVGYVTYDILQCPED

B1: Masked 425: sEGFRdIII (S460P/G461N) mask, MMP-9 cleavable linker, scFv 425, FLAG and H6 tags; SEQ ID NO:6 (protein)
chain: MRPSGTAGAALLALLAALCPASRARKVCNGIGIGEFKDSLSINATNIKHFKNCTSISGDLHILPVAFRGDSFTHTPPLDPQELDILKTVKEITGFLLIAAWPENRTDLHAFENLEIIRGRTKMEGQFSLAVVSLNITSLGLRSLKEISDGDVIISGNKNLCYANTINWKKLFGTSGQKTKIISNRGENSCKATGQVCHALCSPEGCWGPEPKDCVSCRNVSRGRECCSRGGGSGGGSGGGSVPLSLYSGSTSGSGKSSEGSGSGAQGELVMTQSPAIMSASPGEKVTMTCSASSSVTYMYWYQQKPGSSPRLLIYDTSNLASGVPVRFSGSGSGTSYSLTISRMEAEDAATYYCQQWSSHIFTFGSGTKLEIKGGGGSGGGGSGGGGSQVQLVESGAELVKPGASVKLSCKASGYTFTSHWMHWVKQRAGQGLEWIGEFNPSNGRTNYNEKFKSKATLTVDKSSSTAYMQLSSLTSEDSAVYYCASRDYDYDGRYFDYWGQGTTLTVSDYKDDDDKTGHHHHHH
- cleavage by recombinant active MMP-9: completely cleaved
